According to article PMC3295541 (Biochemistry, 2010):

How the values were obtained:
PdxB = PdxB (Escherichia coli, UniProt P05459); assay: coupled assay with SerC and PdxA, NADH formation at […] nm; format: biochemical
purified protein [1] = substrate: CC(=O)C(=O)O; assay: purified protein; format: biochemical, Escherichia coli; details: 4PE 29 μM, TND buffer pH 8.0, room temperature
purified protein [2] = substrate: O=C(O)CC(=O)C(=O)O; assay: purified protein; format: biochemical, Escherichia coli; details: 4PE 29 μM, TND buffer pH 8.0, room temperature
purified protein [3] = substrate: O=C(O)CCC(=O)C(=O)O; assay: purified protein; format: biochemical, Escherichia coli; details: 4PE 29 μM, TND buffer pH 8.0, room temperature
purified protein [4] = substrate: O=C(O)[C@H](O)[C@H](O)COP(=O)(O)O; assay: purified protein; format: biochemical, Escherichia coli; details: αKG 2 mM, TND buffer pH 8.0, room temperature
SEC = molecular target: the molecule itself; assay: SEC

O=C(O)CC[C@H](O)C(=O)O [L-2-HGA]
IC50 (PdxB): > 2 mM

B1: PdxB (4-phospho-D-erythronate dehydrogenase) from E. coli (enzyme, UniProt P05459 1-378, looked up)
chain: MKILVDENMPYARDLFSRLGEVTAVPGRPIPVAQLADADALMVRSVTKVNESLLAGKPIKFVGTATAGTDHVDEAWLKQAGIGFSAAPGCNAIAVVEYVFSSLLMLAERDGFSLYDRTVGIVGVGNVGRRLQARLEALGIKTLLCDPPRADRGDEGDFRSLDELVQRADILTFHTPLFKDGPYKTLHLADEKLIRSLKPGAILINACRGAVVDNTALLTCLNEGQKLSVVLDVWEGEPELNVELLKKVDIGTSHIAGYTLEGKARGTTQVFEAYSKFIGHEQHVALDTLLPAPEFGRITLHGPLDQPTLKRLVHLVYDVRRDDAPLRKVAGIPGEFDKLRKNYLERREWSSLYVICDDASAASLLCKLGFNAVHHPAR
Km (purified protein [1]): 128 ± 20 µM
kcat (purified protein [1]): 1.3 ± 0.14 s⁻¹
kcat/Km (purified protein [1]): 9900 ± 160 M⁻¹ s⁻¹
Km (purified protein [2]): 86 ± 19 µM
kcat (purified protein [2]): 1.1 ± 0.31 s⁻¹
kcat/Km (purified protein [2]): 13000 ± 2100 M⁻¹ s⁻¹
Km (purified protein [3]): 93 ± 19 µM
kcat (purified protein [3]): 1 ± 0.24 s⁻¹
kcat/Km (purified protein [3]): 11000 ± 2400 M⁻¹ s⁻¹
Km (purified protein [4]): 2.9 ± 1.3 µM
stoichiometry N (SEC): 2
